In the supplement of paper PMC11246515:
± gives the standard deviation of the averaged measurements.

Experiment: total protein half-life in vivo (active degradation + dilution); higher = more stable protein
[1] = E. coli NCM3722 delta-clpP delta-lon delta-hslV, growth: N-lim chemostat, doubling time 6 h
[2] = E. coli NCM3722 delta-clpP, growth: N-lim chemostat, doubling time 6 h
[3] = E. coli NCM3722 delta-hslV, growth: N-lim chemostat, doubling time 6 h
[4] = E. coli NCM3722 delta-lon, growth: N-lim chemostat, doubling time 6 h
[5] = E. coli NCM3722 delta-smpB, growth: N-lim chemostat, doubling time 6 h
[6] = wild type E. coli NCM3722, growth: C-lim chemostat, doubling time 3 h
[7] = wild type E. coli NCM3722, growth: C-lim chemostat, doubling time 6 h
[8] = wild type E. coli NCM3722, growth: C-lim chemostat, doubling time 12 h
[9] = wild type E. coli NCM3722, growth: N-lim chemostat, doubling time 6 h
[10] = wild type E. coli NCM3722, growth: N-lim chemostat, doubling time 12 h
[11] = wild type E. coli NCM3722, growth: P-lim chemostat, doubling time 6 h
[12] = wild type E. coli NCM3722, growth: P-lim chemostat, doubling time 12 h

Row | Sequence | total protein half-life in vivo [1] [h] | total protein half-life in vivo [2] [h] | total protein half-life in vivo [3] [h] | total protein half-life in vivo [4] [h] | total protein half-life in vivo [5] [h] | total protein half-life in vivo [6] [h] | total protein half-life in vivo [7] [h] | total protein half-life in vivo [8] [h] | total protein half-life in vivo [9] [h] | total protein half-life in vivo [10] [h] | total protein half-life in vivo [11] [h] | total protein half-life in vivo [12] [h]
1 | MISDIRKDAEVRMDKCVEAFKTQISKIRTGRASPSLLDGIVVEYYGTPTPLRQLASVTVEDSRTLKINVFDRSMSPAVEKAIMASDLGLNPNSAGSDIRVPLPPLTEERRKDLTKIVRGEAEQARVAVRNVRRDANDKVKALLKDKEISEDDDRRSQDDVQKLTDAAIKKIEAALADKEAELMQF [P0A805] | 4.75 ± 0.095 | 4.0455 ± 0.00085 | 4.18 ± 0.071 | 5.16 ± 0.078 | 3.87 ± 0.05 | 2.851 ± 0.0093 | 4.84 ± 0.37 | 8.3 ± 0.69 | 3.38 ± 0.24 | 5.74 ± 0.96 | 5.04 ± 0.18 | 9.21 ± 0.22
2 | MISLFDMFKVGIGPSSSHTVGPMKAGKQFVDDLVEKGLLDSVTRVAVDVYGSLSLTGKGHHTDIAIIMGLAGNEPATVDIDSIPGFIRDVEERERLLLAQGRHEVDFPRDNGMRFHNGNLPLHENGMQIHAYNGDEVVYSKTYYSIGGGFIVDEEHFGQDAANEVSVPYPFKSATELLAYCNETGYSLSGLAMQNELALHSKKEIDEYFAHVWQTMQACIDRGMNTEGVLPGPLRVPRRASALRRMLVSSDKLSNDPMNVIDWVNMFALAVNEENAAGGRVVTAPTNGACGIVPAVLAYYDHFIESVSPDIYTRYFMAAGAIGALYKMNASISGAEVGCQGEVGVACSMAAAGLAELLGGSPEQVCVAAEIGMEHNLGLTCDPVAGQVQVPCIERNAIASVKAINAARMALRRTSAPRVSLDKVIETMYETGKDMNAKYRETSRGGLAIKVQCD | 3.76 ± 0.4 | 3.54 ± 0.37 | 1.9 ± 0.28 | 2.48 ± 0.38 | 1.78 ± 0.14 | 1.52 ± 0.084 | 2.267 ± 0.0096 | 3.25 ± 0.43 | 2.08 ± 0.26 | 2.57 ± 0.32 | 3.4 ± 0.63 | 7.67 ± 0.65
3 | MISVTLSQLTDILNGELQGADITLDAVTTDTRKLTPGCLFVALKGERFDAHDFADQAKAGGAGALLVSRPLDIDLPQLIVKDTRLAFGELAAWVRQQVPARVVALTGSSGKTSVKEMTAAILSQCGNTLYTAGNLNNDIGVPMTLLRLTPEYDYAVIELGANHQGEIAWTVSLTRPEAALVNNLAAAHLEGFGSLAGVAKAKGEIFSGLPENGIAIMNADNNDWLNWQSVIGSRKVWRFSPNAANSDFTATNIHVTSHGTEFTLQTPTGSVDVLLPLPGRHNIANALAAAALSMSVGATLDAIKAGLANLKAVPGRLFPIQLAENQLLLDDSYNANVGSMTAAVQVLAEMPGYRVLVVGDMAELGAESEACHVQVGEAAKAAGIDRVLSVGKQSHAISTASGVGEHFADKTALITRLKLLIAEQQVITILVKGSRSAAMEEVVRALQENGTC | 4.74 ± 0.18 | 4.41 ± 0.27 | 5.24 ± 0.92 | 4.44 ± 0.34 | 4.68 ± 0.057 | 3.37 ± 0.67 | 6.24 ± 1.3 | 9.83 ± 0.28 | 4.48 ± 0.31 | 7.03 ± 0.19 | 5.79 ± 0.27 | 10.2 ± 1.7
4 | MITHISPLGSMDMLSQLEVDMLKRTASSDLYQLFRNCSLAVLNSGSLTDNSKELLSRFENFDINVLRRERGVKLELINPPEEAFVDGRIIRALQANLFAVLRDILFVYGQIHNTVRFPNLNLDNSVHITNLVFSILRNARALHVGEAPNMVVCWGGHSINENEYLYARRVGNQLGLRELNICTGCGPGAMEAPMKGAAVGHAQQRYKDSRFIGMTEPSIIAAEPPNPLVNELIIMPDIEKRLEAFVRIAHGIIIFPGGVGTAEELLYLLGILMNPANKDQVLPLILTGPKESADYFRVLDEFVVHTLGENARRHYRIIIDDAAEVARQMKKSMPLVKENRRDTGDAYSFNWSMRIAPDLQMPFEPSHENMANLKLYPDQPVEVLAADLRRAFSGIVAGNVKEVGIRAIEEFGPYKINGDKEIMRRMDDLLQGFVAQHRMKLPGSAYIPCYEICT [P0ADR8] | 5.75 ± 1.1 | 4.95 ± 0.11 | 5.02 ± 0.07 | 5.1 ± 0.26 | 4.58 ± 0.19 | 3.03 ± 0.13 | 6.01 ± 0.13 | 11.3 ± 0.31 | 5.07 ± 0.029 | 9.48 ± 0.11 | 5.93 ± 0.55 | 11.9 ± 0.48
5 | MITIRDVARQAGVSVATVSRVLNNSTLVSADTREAVMKAVSELDYRPNANAQALATQVSDTIGVVVMDVSDAFFGALVKAVDLVAQQHQKYVLIGNSYHEAEKERHAIEVLIRQRCNALIVHSKALSDDELAQFMDNIPGMVLINRVVPGYAHRCVCLDNLSGARMATRMLLNNGHQRIGYLSSSHGIEDDAMRKAGWMSALKEQDIIPPESWIGAGTPDMPGGEAAMVELLGRNLQLTAVFAYNDNMAAGALTALKDNGIAIPLHLSIIGFDDIPIARYTDPQLTTVRYPIASMAKLATELALQGAAGNIDPRASHCFMPTLVRRHSVATRQNAAAITNSTNQAM | 5.93 | 3.96 |  |  |  |  | 4.74 ± 0.55 | 8.13 ± 1.9 |  |  |  | 10.9
6 | MITLWGRNNSTNVKKVLLTLEELELPYEQILAGREFGINHDADFLAMNPNGLVPLLRDDESDLILWESNAIVRYLAAQYGQKRLWIDSPARRAEAEKWMDWANQTLSNAHRGILMGLVRTPPEERDQAAIDASCKECDALFALLDAELAKVKWFSGDEFGVGDIAIAPFIYNLFNVGLTWTPRPNLQRWYQQLTERPAVRKVVMIPVS [P0ACA7] | 5.15 ± 0.42 | 4.47 ± 0.4 | 5.27 ± 1.5 | 4.6 ± 0.45 | 4.53 ± 0.24 | 2.9 ± 0.27 | 6.21 ± 0.49 | 9.3 ± 0.54 | 4.49 ± 0.48 | 7.89 ± 0.23 | 5.74 ± 0.36 | 12.1 ± 0.25
7 | MITNTKLDPIETASVDELQALQTQRLKWTLKHAYENVPMYRRKFDAAGVHPDDFRELSDLRKFPCTTKQDLRDNYPFDTFAVPMEQVVRIHASSGTTGKPTVVGYTQNDIDNWANIVARSLRAAGGSPKDKIHVAYGYGLFTGGLGAHYGAERLGATVIPMSGGQTEKQAQLIRDFQPDMIMVTPSYCLNLIEELERQLGGDASGCSLRVGVFGAEPWTQAMRKEIERRLGITALDIYGLSEVMGPGVAMECLETTDGPTIWEDHFYPEIVNPHDGTPLADGEHGELLFTTLTKEALPVIRYRTRDLTRLLPGTARTMRRMDRISGRSDDMLIIRGVNVFPSQLEEEIVKFEHLSPHYQLEVNRRGHLDSLSVKVELKESSLTLTHEQRCQVCHQLRHRIKSMVGISTDVMIVNCGSIPRSEGKACRVFDLRNIVGA | 4.99 ± 0.39 |  |  |  |  | 0.692 ± 0.075 | 0.955 ± 0.08 | 1.21 ± 0.14 |  |  |  | 0.624
